According to PMC3735830 (Nature structural & molecular biology, 2013):

T1: Mcm4 (S. cerevisiae, UniProt P30665 1-933)
T1 sequence: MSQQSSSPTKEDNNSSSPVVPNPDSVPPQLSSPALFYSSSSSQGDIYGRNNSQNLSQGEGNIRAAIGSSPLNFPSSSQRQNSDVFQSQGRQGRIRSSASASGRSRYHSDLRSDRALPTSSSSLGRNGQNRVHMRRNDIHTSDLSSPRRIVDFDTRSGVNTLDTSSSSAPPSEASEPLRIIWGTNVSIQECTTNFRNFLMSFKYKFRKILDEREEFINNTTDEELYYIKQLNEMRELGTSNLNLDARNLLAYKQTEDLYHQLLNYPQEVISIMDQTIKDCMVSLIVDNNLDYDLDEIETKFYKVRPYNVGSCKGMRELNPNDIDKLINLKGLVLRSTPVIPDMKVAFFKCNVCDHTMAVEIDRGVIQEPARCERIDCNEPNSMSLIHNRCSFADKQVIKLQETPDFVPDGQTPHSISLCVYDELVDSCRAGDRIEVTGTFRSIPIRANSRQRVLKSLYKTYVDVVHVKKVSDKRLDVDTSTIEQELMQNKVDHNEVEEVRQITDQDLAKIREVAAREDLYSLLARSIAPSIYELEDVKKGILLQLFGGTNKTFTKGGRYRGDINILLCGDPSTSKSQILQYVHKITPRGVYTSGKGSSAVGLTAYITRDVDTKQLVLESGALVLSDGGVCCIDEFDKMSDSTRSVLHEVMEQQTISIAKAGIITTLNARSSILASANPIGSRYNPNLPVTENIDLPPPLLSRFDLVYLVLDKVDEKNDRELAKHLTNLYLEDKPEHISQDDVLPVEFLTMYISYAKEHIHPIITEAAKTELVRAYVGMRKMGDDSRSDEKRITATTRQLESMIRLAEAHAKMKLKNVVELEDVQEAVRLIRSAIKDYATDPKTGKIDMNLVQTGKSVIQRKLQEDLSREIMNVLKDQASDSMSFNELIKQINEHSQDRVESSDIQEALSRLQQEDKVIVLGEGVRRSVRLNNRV


Assays:
Experiment in all cases: co-IP
MCM2-7-ΔC3 = MCM2-7-ΔC3 (S. cerevisiae, UniProt P29469;P24279;P30665;P29496;P53091;P38132)
MCM2-7 = MCM2-7 (S. cerevisiae, UniProt P29469;P24279;P30665;P29496;P53091;P38132)
Mcm4 = biological target: T1, Mcm4
Mcm3 = Mcm3 (S. cerevisiae, UniProt P24279 1-971)
[1] = biological target: Origin Recognition Complex (ORC) (S. cerevisiae, UniProt P54784;P32833;P54790;P54791;P50874;P38826)

Sequence of MCM2-7 (P24279 whole entry, chain 2 of 4): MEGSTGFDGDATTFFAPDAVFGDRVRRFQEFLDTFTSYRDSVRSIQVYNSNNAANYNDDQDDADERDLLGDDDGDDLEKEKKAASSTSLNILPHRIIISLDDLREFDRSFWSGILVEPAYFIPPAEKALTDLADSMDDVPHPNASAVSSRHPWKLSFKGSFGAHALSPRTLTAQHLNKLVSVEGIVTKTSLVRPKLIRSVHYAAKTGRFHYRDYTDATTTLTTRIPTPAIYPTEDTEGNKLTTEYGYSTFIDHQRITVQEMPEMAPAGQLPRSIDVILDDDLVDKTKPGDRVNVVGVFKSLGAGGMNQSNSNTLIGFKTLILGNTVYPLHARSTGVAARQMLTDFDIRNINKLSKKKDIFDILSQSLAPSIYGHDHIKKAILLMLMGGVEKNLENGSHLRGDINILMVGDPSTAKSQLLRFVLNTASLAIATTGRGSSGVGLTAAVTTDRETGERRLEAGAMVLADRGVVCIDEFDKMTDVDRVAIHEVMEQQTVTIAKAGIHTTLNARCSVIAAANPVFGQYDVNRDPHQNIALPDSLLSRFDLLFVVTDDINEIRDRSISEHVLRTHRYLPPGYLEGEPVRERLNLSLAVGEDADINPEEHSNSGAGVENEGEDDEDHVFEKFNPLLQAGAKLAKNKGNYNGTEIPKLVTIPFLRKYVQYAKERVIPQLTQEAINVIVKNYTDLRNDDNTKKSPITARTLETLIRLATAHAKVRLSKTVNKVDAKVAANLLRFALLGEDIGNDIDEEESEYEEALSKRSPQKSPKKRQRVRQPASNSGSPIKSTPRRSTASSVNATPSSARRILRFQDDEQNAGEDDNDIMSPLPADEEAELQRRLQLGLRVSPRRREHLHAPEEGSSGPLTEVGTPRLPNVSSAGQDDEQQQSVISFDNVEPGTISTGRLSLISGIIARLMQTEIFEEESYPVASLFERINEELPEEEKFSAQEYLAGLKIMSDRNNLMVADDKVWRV
Sequence of MCM2-7 (P29496 whole entry, chain 4 of 4): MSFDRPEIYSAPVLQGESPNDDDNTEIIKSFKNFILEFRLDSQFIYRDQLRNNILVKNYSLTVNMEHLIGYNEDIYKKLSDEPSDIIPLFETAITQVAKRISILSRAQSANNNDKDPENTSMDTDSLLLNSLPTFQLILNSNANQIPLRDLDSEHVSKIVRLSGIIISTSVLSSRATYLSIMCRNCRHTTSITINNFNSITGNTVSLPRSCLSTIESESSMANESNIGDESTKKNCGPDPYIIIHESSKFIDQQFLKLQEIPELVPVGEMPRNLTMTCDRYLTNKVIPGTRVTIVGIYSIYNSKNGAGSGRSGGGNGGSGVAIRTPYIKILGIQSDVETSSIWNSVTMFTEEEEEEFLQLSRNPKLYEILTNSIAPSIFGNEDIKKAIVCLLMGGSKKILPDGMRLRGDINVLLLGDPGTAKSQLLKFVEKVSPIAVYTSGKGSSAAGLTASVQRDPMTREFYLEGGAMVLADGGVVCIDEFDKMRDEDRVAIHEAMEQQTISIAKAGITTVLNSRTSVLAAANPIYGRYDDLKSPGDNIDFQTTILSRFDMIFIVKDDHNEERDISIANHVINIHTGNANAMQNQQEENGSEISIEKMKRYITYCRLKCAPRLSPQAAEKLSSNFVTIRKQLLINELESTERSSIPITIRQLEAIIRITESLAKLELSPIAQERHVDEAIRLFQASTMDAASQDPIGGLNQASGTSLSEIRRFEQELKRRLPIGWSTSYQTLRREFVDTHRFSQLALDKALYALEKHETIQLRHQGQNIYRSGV
Sequence of MCM2-7 (P53091 whole entry, chain 5 of 4): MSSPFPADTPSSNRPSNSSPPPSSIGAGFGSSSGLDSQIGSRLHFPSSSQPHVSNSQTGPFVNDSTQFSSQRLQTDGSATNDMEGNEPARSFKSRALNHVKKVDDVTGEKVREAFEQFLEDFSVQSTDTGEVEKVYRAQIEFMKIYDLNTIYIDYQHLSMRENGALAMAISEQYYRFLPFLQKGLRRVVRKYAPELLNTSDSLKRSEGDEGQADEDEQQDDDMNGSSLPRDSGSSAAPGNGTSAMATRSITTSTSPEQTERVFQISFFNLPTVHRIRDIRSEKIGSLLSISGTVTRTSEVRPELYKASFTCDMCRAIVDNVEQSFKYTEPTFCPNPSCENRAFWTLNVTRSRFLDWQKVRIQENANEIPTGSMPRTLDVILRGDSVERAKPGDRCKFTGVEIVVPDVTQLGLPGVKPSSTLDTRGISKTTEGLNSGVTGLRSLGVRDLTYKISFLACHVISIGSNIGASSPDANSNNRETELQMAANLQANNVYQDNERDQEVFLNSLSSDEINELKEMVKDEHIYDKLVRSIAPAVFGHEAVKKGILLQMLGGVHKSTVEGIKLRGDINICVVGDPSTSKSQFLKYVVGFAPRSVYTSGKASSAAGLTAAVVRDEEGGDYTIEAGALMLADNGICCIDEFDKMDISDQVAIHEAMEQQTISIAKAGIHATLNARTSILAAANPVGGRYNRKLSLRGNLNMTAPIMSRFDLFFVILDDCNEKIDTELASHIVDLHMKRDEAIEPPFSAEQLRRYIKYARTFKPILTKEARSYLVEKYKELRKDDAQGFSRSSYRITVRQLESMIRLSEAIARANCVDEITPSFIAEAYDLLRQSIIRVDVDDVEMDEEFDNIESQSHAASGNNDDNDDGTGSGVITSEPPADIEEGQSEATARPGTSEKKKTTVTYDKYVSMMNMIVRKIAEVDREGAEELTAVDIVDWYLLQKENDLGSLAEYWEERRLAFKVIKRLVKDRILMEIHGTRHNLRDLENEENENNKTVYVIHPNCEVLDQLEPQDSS
Sequence of MCM2-7 (P38132 whole entry, chain 6 of 4): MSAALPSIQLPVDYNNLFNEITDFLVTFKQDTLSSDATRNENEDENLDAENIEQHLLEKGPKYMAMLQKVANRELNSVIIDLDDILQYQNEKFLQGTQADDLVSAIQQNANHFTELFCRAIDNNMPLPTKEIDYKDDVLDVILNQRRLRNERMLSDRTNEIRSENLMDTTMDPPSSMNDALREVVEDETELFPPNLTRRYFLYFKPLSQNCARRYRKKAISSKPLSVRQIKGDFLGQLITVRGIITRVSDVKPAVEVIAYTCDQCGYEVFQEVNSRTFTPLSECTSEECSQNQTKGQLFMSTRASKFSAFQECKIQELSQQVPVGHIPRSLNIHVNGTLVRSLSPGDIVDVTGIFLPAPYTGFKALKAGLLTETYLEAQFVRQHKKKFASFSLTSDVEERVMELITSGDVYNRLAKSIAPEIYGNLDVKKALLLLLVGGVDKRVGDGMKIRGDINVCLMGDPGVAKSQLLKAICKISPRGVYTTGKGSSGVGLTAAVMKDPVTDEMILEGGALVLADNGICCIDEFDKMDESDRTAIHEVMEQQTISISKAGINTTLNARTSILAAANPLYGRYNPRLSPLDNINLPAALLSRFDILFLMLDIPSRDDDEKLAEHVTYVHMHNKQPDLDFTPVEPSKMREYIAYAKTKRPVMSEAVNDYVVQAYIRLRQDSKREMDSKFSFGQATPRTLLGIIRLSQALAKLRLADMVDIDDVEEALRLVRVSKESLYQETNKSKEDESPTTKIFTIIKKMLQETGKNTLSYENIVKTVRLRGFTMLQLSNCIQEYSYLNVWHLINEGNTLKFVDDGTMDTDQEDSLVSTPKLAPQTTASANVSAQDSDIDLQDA
Sequence of Mcm3 (P24279 whole entry): as the sequence (P24279 whole entry, chain 2 of 4) above
Sequence of MCM2-7-ΔC3 (P24279 1-739, stated change not applied, chain 2 of 4): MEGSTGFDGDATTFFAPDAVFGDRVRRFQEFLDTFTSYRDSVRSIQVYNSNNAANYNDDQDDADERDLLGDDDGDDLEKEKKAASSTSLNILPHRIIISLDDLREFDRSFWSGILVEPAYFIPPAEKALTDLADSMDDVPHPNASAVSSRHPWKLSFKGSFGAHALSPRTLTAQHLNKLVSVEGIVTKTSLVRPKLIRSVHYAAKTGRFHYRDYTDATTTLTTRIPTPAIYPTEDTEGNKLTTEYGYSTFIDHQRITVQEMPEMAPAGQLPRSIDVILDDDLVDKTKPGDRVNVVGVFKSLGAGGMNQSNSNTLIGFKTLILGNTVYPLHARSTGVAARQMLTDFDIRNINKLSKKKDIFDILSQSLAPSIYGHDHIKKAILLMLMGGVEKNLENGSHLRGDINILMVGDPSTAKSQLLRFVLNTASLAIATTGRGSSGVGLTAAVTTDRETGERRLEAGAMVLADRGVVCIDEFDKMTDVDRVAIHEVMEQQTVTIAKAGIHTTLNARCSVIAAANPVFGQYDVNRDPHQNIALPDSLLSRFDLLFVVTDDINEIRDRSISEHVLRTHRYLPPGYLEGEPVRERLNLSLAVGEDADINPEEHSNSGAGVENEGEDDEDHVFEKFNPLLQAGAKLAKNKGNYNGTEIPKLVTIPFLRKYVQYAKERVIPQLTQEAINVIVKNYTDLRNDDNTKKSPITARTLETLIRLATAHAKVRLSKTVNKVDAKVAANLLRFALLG
Sequence of MCM2-7-ΔC3 (P29496 whole entry, stated change not applied, chain 4 of 4): as the sequence (P29496 whole entry, chain 4 of 4) above
Sequence of MCM2-7-ΔC3 (P53091 whole entry, stated change not applied, chain 5 of 4): as the sequence (P53091 whole entry, chain 5 of 4) above
Sequence of MCM2-7-ΔC3 (P38132 whole entry, stated change not applied, chain 6 of 4): as the sequence (P38132 whole entry, chain 6 of 4) above

binding result (MCM2-7-ΔC3) | binding result (MCM2-7) | binding result (Mcm4) | binding result (Mcm3) | binding result [1] | Binder
binds | binds |  |  |  | MBP-Cdc6 (natural protein) MSAIPITPTKRIRRNLFDDAPATPPRPLKRKKLQFTDVTPESSPEKLQFGSQSIFLRTKALLQKSSELVNLNSSDGALPARTAEYEQVMNFLAKAISEHRSDSLYITGPPGTGKTAQLDMIIRQKFQSLPLSLSTPRSKDVLRHTNPNLQNLSWFELPDGRLESVAVTSINCISLGEPSSIFQKIFDSFQDLNGPTLQIKNMQHLQKFLEPYHKKTTFVVVLDEMDRLLHANTSETQSVRTILELFLLAKLPTVSFVLIGMANSLDMKDRFLSRLNLDRGLLPQTIVFQPYTAEQMYEIVIQKMSSLPTIIFQPMAIKFAAKKCAGNTGDLRKLFDVLRGSIEIYELEKRFLLSPTRGSLNSAQVPLTPTTSPVKKSYPEPQGKIGLNYIAKVFSKFVNNNSTRTRIAKLNIQQKLILCTIIQSLKLNSDATIDESFDHYIKAITKTDTLAPLQRNEFLEICTILETCGLVSIKKTKCKGKTKRFVDKIDVDLDMREFYDEMTKISILKPFLH
 |  | binds | binds | binds | Mcm2 (natural protein) MSDNRRRRREEDDSDSENELPPSSPQQHFRGGMNPVSSPIGSPDMINPEGDDNEVDDVPDIDEVEEQMNEVDLMDDNMYEDYAADHNRDRYDPDQVDDREQQELSLSERRRIDAQLNERDRLLRNVAYIDDEDEEQEGAAQLDEMGLPVQRRRRRRQYEDLENSDDDLLSDMDIDPLREELTLESLSNVKANSYSEWITQPNVSRTIARELKSFLLEYTDETGRSVYGARIRTLGEMNSESLEVNYRHLAESKAILALFLAKCPEEMLKIFDLVAMEATELHYPDYARIHSEIHVRISDFPTIYSLRELRESNLSSLVRVTGVVTRRTGVFPQLKYVKFNCLKCGSILGPFFQDSNEEIRISFCTNCKSKGPFRVNGEKTVYRNYQRVTLQEAPGTVPPGRLPRHREVILLADLVDVSKPGEEVEVTGIYKNNYDGNLNAKNGFPVFATIIEANSIKRREGNTANEGEEGLDVFSWTEEEEREFRKISRDRGIIDKIISSMAPSIYGHRDIKTAVACSLFGGVPKNVNGKHSIRGDINVLLLGDPGTAKSQILKYVEKTAHRAVFATGQGASAVGLTASVRKDPITKEWTLEGGALVLADKGVCLIDEFDKMNDQDRTSIHEAMEQQSISISKAGIVTTLQARCSIIAAANPNGGRYNSTLPLAQNVSLTEPILSRFDILCVVRDLVDEEADERLATFVVDSHVRSHPENDEDREGEELKNNGESAIEQGEDEINEQLNARQRRLQRQRKKEEEISPIPQELLMKYIHYARTKIYPKLHQMDMDKVSRVYADLRRESISTGSFPITVRHLESILRIAESFAKMRLSEFVSSYDLDRAIKVVVDSFVDAQKVSVRRQLRRSFAIYTLGH
